Test results as given in the supplement of paper PMC9170038.

Tested on: MS2 coat protein
Assay: apparent KD of MS2 coat protein; designed switch direction (-1 OFF switch, 1 ON switch): -1; higher = weaker reporter binding
In short: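 The reported apparent KD is a per-design median over clusters, from curve fits of normalised cluster fluorescence. Protein titrations used SNAP-549-labelled MS2 coat protein, doubled from 0.7 or 1.5 nM to 3 µM, in Tris-HCl pH 7.5 buffer with KCl, MgCl2, BSA, DTT, tRNA and Tween-20, with no input, 200 uM small-molecule ligand, or an oligonucleotide input. The RNA switches were transcribed on Illumina chips by stalled E. coli RNA polymerase.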

[1] = Eterna round: R95, input ligand: microRNA oligo, concentration not stated
[2] = input ligand: microRNA oligo, concentration not stated
[3] = Eterna round: R95, input ligand: FMN 200 uM
[4] = Eterna round: R95, input ligand: none

Sequence | apparent KD of MS2 coat protein (input ligand: FMN 200 uM) [nM] | apparent KD of MS2 coat protein (input ligand: none) [nM] | apparent KD of MS2 coat protein [1] [nM] | apparent KD of MS2 coat protein [2] [nM] | apparent KD of MS2 coat protein [3] [nM] | apparent KD of MS2 coat protein [4] [nM]
CGCACACAUGAGGAUCACCCAUGUGAGGAUAUCAUGCUUCGUAGUAAACUACGAAGUGUGAGAAGGCACAUGCA [Omei Ex1 D6] (Eterna round: R97, puzzle: Exclusion 1) | 169 | 44.4 |  |  |  | 
CGCAUGCAAGGAUAUACUUGCAGUGAUAUUCGAUAAAGUCUACUUGAGGAUCACCCAAGUAGAAGGUGCAUGCG [Exclusion 2 (Mod6.1 JL EX2 4.74 Vienna UCT mod of Mamaed)] (Eterna round: R97, puzzle: Exclusion 2) | 33.3 | 25 |  |  |  | 
CGCUGGACAGGAUAUGUUCUUGGGCACUUGAGGAUCACCCAAGUCAUCAAAAACUCAGGCACAGAAGGGUUUAUGG [salish99_ex5_r4_019] (Eterna round: R97, puzzle: Exclusion 5) | 76 | 176 |  |  |  | 
CGGAUGUGAGGAUAUACAUGAGGAUCACCCAUGUGAGCCAGCUAGAUGACUGGCUCGUGUAGAAGGCACGUCUG [Mat - Exclusion 3 - Mod of JL D92] (puzzle: Exclusion 3) |  |  | 12.1 |  |  | 
CGGAUGUUAGGAUAUUAGUAGUAGUCAGAAUAGACUAUUACUGAGAAGGAACAUGAGGAUCACCCAUGUUUCCG [Eli x4 4.19] (Eterna round: R97, puzzle: Exclusion 4) | 16.5 | 17.4 |  |  |  | 
CGGCAUGAAGGAUAUACAUGAGGAUCACCCAUGUAAGUUACCUACAUGGCCUCACCUAGUAGAAGGUUAUCCGG [Eternabot (L2) Solution 72] (Eterna round: R97, puzzle: Exclusion 3) | 94.4 | 28 |  |  |  | 
CGGCAUGUAGAAGGAUAUCUGCACGUUUAGUGCAGAGAAGGUCUAACAUGAGGAUCACCCAUGUAGAUCAUUAACCGAUUAAUU [ENG1/8-A2] (Eterna round: R96, puzzle: Exclusion NG 1) | 19.5 | 12.1 |  | 10.4 |  | 
CGGUCGUCCUCAGGAUAUACAUGAGGAUCACCCAUGUUUCUAGGAUCGGUCGUCCGGUCGGUGGUGUAGAAGGGAGGGUGGCUG [random 2, A 18%] (Eterna round: R96, puzzle: Exclusion NG 2) | 159 | 43.6 |  | 37.1 |  | 
CGGUGUAACGUAGGAUAUCAACGCAACUGACGAUGAGAAGGACGACAUGAGGAUCACCCAUGUGAUUUCUCAAUAUUAUACAUC [Prohibition 86 - Jieux - Exclusion NG 1] (Eterna round: R96, puzzle: Exclusion NG 1) | 339 | 63.4 |  | 41.9 |  | 
CGUAGCAAAGUGAGGAUAUCUAGAGCCUCGGCUCUAGAGAAGGCACAUGAGGAUCACCCAUGUGGUCAGCUACG [BmEx4/8-A2] (Eterna round: R97, puzzle: Brourd's mod of Exclusion 4) | 1050 | 101 |  |  |  | 
CGUCAGUGAGGAUAUGGUAACGUUUACAUGAGGAUCACCCAUGUUUCAUGGGACUAGAGACUAGAAGGCACUGACG [JR_Ex5_Sub030] (Eterna round: R97, puzzle: Exclusion 5) | 439 | 416 |  |  |  | 
CGUCCGAACUCAGGAUAUCAACUUAACAACAUGAGGAUCACCCAUGUGGCCUGUAAAACCCGAGAUGAGAAGGGAGGGCGGGCC [Usceondiat] (Eterna round: R96, puzzle: Exclusion NG 2) | 13.6 | 19.7 |  | 15.4 |  | 
CGUCUGUAAGGAUAUGGUUACAUAGACAUGAGGAUCACCCAUGUUACGUGGGACUAGUGAUUAGAAGGUACGAACG [EX5 #67] (Eterna round: R97, puzzle: Exclusion 5) | 54.7 | 51.2 |  |  |  | 
CGUGACUCAGGAUAUCUAUUGUAUCACAUGAGGAUCACCCAUGUCCAGCGAAAGCUGGAGGGAGAAGGGAGUCACG [Fiskers Ex 5 - 46] (puzzle: Exclusion 5) |  |  | 204 |  | 48.6 | 186
CGUGACUCAGGAUAUGUAUAAUAUCACAUGAGGAUCACCCAUGUCCAGCGAAAGCUGGAGGCAGAAGGGAGUCACG [Fiskers Ex 5 - 38] (puzzle: Exclusion 5) |  |  | 58.8 |  | 43.1 | 31.9
CGUGCGUAUGUGAGGAUAUGCUGGUCCUUGGAUCAGCAGAAGGCACAUGAGGAUCACCCAUGUGGUGUCGUACU [salish99_Bmod_Ex4_017] (puzzle: Brourd's mod of Exclusion 4) |  |  | 161 |  |  | 
CGUGCGUAUGUGAGGAUAUGCUGGUCCUUGGAUCGGCAGAAGGCACAUGAGGAUCACCCAUGUGGUGUCGUUCC [salish99_Bmod_ex4_094] (Eterna round: R96, puzzle: Brourd's mod of Exclusion 4) | 328 | 39.1 |  | 30.8 |  | 

Sequence | apparent KD of MS2 coat protein (input ligand: FMN 200 uM) [nM] | apparent KD of MS2 coat protein (input ligand: none) [nM] | apparent KD of MS2 coat protein [1] [nM] | apparent KD of MS2 coat protein [2] [nM] | apparent KD of MS2 coat protein [3] [nM] | apparent KD of MS2 coat protein [4] [nM]
CGUGCGUAUGUGAGGAUAUGCUGGUCCUUGGAUCGGCAGAAGGCACAUGAGGAUCACCCAUGUGGUGUCGUUCC [salish99_Bmod_ex4_094] (puzzle: Brourd's mod of Exclusion 4) |  |  | 39 |  |  | 
CGUGGCCGGUGAGGAUAUUGAUGACAUGAGGAUCACCCAUGUGUAUCCUCUCGAAAUACCGUGAUCAAGAAGGCAUGGUGCCAC [Ritibe] (Eterna round: R96, puzzle: Exclusion NG 2) | 68.5 | 14 |  | 12 |  | 
CUAAAUCAUGUAGGAUAUGCAUAGCAAAGCUAUGCAGAAGGACAUGAGGAUCACCCAUGUCAUUCCGUCUGGAGACAGACGGGA [Mat - Exclusion NG 1 - Mod of JL - D56] (Eterna round: R96, puzzle: Exclusion NG 1) | 142 | 32.5 |  | 25 |  | 
CUAAAUCAUGUAGGAUAUGCGUGGCAAAGCUAUGCAGAAGGACAUGAGGAUCACCCAUGUGCUUCCGUCUGAGUACAGACGGUA [Mat - Exclusion NG 1 - Mod of JL - D22] (Eterna round: R96, puzzle: Exclusion NG 1) | 622 | 98.2 |  | 72.9 |  | 
CUAAUGUAUCAGGAUAUGAUUAUAUGUGUUGGAUCAGAAGGGAUAACAUGAGGAUCACCCAUGUUGUGGAGUGA [JR_Ex6_Sub036] (Eterna round: R97, puzzle: Exclusion 6) | 202 | 234 |  |  |  | 
CUAAUUCGAGGAUAUGCAAUGGAGUCUUUAAUAUAGUUCUCACAUGAGGAUCACCCAUGUAGAAGGCGAGCGGG [Eternabot (L1) Solution 50] (Eterna round: R97, puzzle: Exclusion 2) | 115 | 53.1 |  |  |  | 
CUACUACAUGAGGAUCACCCAUGUGAGGAUAUCAGUGGUGCUGCUAGGUAGUCCGGACUGAGAAGGCGCAUAGU [Mod-Malcom] (Eterna round: R97, puzzle: Exclusion 1) | 43.1 | 52.8 |  |  |  | 
CUAGACGGAGGAUAUACGAGAUCGAAAGAUCGGCGAUCCCUACAUGAGGAUCACCCAUGUAGAAGGCUGUUUAG [Mod 19 - Jieux - Exclusion 2] (Eterna round: R97, puzzle: Exclusion 2) | 69.9 | 16.2 |  |  |  | 
CUAGCGGAUGUAGGAUAUCGGACUGUUUCAGUCUGAGAAGGACAUGAGGAUCACCCAUGUAUUGCUGCGUGAGUAGCACGCUAG [JL ENG1 3.97] (Eterna round: R96, puzzle: Exclusion NG 1) |  |  |  | 17.4 |  | 
CUAGCGUAUGUAGGAUAUCGGACUGUUUCAGUCUGAGAAGGACAUGAGGAUCACCCAUGUAUAGCUACGUGAGUAGCUCGCUAG [JL ENG1 3.94] (Eterna round: R96, puzzle: Exclusion NG 1) |  |  |  | 17.2 |  | 
CUAGCUAUUGUAGGAUAUCGAUGUGUUUCACAUCGAGAAGGACAUGAGGAUCACCCAUGUGAAGGAUCGUGAGAUCCAAGCUAG [JL ENG1 3.77] (Eterna round: R96, puzzle: Exclusion NG 1) | 128 | 24.1 |  | 25.1 |  | 
CUAGUAUAUCAGGAUAUGAUUUUAUAUAGUUGGUCAGAAGGGAUGACAUGAGGAUCACCCAUGUUAAGGAGUGA [JR_Ex6_Sub043] (Eterna round: R97, puzzle: Exclusion 6) | 143 | 118 |  |  |  | 
CUAGUAUAUCAGGAUAUGAUUUUAUAUAUUGGAUCAGAAGGGAUAACAUGAGGAUCACCCAUGUUAAGGAGUGA [JR_Ex6_Sub040] (Eterna round: R97, puzzle: Exclusion 6) | 155 | 45 |  |  |  | 
CUCAAAAGUCGGUUUACACACAUGAGGAUCACCCAUGUAAGCAAACAUAUAGGCUCUACGAUUUGCUCGCUCUUAUA [Eternabot (L1) Solution 34] (Eterna round: R97, puzzle: Sensor, turn-off variant 1) | 13.5 | 13.2 |  |  |  | 
CUCAGGGUGCAGGAUAUCAUGGGAUAUCCCACCUGAGAAGGGCGAACAUGAGGAUCACCCAUGUGAGUGGGAGA [Eternabot (L2) Solution 85] (Eterna round: R97, puzzle: Exclusion 6) | 488 | 441 |  |  |  | 
CUCAUGUCAGGAUAUCAGGCAGGAAGCUGCCAAAAGUGGGAUGAGAAGGGACAUGAGGAUCACCCAUGUAAAUA [Mazasoti] (Eterna round: R97, puzzle: Exclusion 4) | 355 | 218 |  |  |  | 
CUCAUGUCAGGAUAUCUACAUUAAAUUGGUAACCAAGCAUGAGAGAAGGGACAUGAGGAUCACCCAUGUAAAAC [Cegeange] (Eterna round: R97, puzzle: Exclusion 4) | 44 | 27.5 |  |  |  | 
